# From article PMC6699858, “Ternary structure of the outer membrane transporter FoxA with resolved signalling domain provides insights into TonB-mediated siderophore uptake” (eLife, 2019)
# B1: TonBCt, C-terminal domain of TonB1 from Pseudomonas aeruginosa strain PAO1 (residues 251-340) (domain or fragment, UniProt Q51368 251-340, looked up)
# chain: DSDIKPLRMDPPVYPRMAQARGIEGRVKVLFTITSDGRIDDIQVLESVPSRMFDREVRQAMAKWRFEPRVSGGKIVARQATKMFFFKIEK
# notes: TonB1, Pseudomonas aeruginosa PAO1, residues 251-340 (C-terminal domain); also called TonB fragment; C-terminal TonB domain; source: E. coli BL21 Gold, purified (HisTrap Ni-NTA, TEV, reverse purification)
# Assays:
# FoxA = biological target: T1, FoxA (Pseudomonas aeruginosa, UniProt Q9I116); experiment: tryptophan fluorescence quenching (Kd […]); also ITC in nanodiscs (Kd […]) and co-crystal structures without and with TonBCt; assay type: binding
# T1 construct: Full-length FoxA, purified in nonyl glucopyranoside
# [1] = biological target: T2, FoxA from Pseudomonas aeruginosa strain PAO1, full-length (Pseudomonas aeruginosa strain PAO1, UniProt Q9I116 1-820, Signal peptide taken as removed in the outer membrane; text gives the mature start as 44 or 45, and 45 is used. His6 tag removed by TEV, residual TEV-site residues at the C-terminus omitted. Ferrioxam); experiment: ITC; 150 μM TonBCt in the syringe, 15 μM ferrioxamine B-bound FoxA in MSP1D1/POPC nanodiscs in the cell (dialysed against 1 mM FoaB); 20 mM HEPES, 150 mM NaCl, pH 7.5; 26 °C; single-site model; triplicates, SD; settings: both partners purified
# [2] = biological target: T2, FoxA from Pseudomonas aeruginosa strain …; experiment: ITC; 150 μM TonBCt in the syringe, 15 μM apo FoxA in MSP1D1/POPC nanodiscs in the cell; 20 mM HEPES, 150 mM NaCl, pH 7.5; 26 °C; single-site model; triplicates, SD; settings: both partners purified
Molecule,Kd (FoxA) [µM],Kd [1] [µM],dH [1] [kJ/mol],Kd [2] [µM],dH [2] [kJ/mol]
"CC(=O)N([O-])CCCCCNC(=O)CCC(=O)N([O-])CCCCCNC(=O)CCC(=O)N([O-])CCCCCN.[Fe+3] [FoaB, ferrioxamine B]",0.1 ± 0.01,,,,
B1,,0.0066,-75.7,0.111,-42.3
